From patent publication US20090036647A1, “BITORAN WHICH IS TRYPSIN-INHIBITOR-LIKE PROTEIN DERIVED FROM BITIS ARIETANS VENOM, AND USE THEREOF AS BLOOD COAGULATION FACTOR Xa INHIBITOR” (NEC SOFT, LTD., priority 2005, published 2009) come the findings set out here.

Test [1] has as its target T1, human blood coagulation factor Xa (Homo sapiens, UniProt P00742). As to the kind of experiment: cell-based or functional assay.
Target sequence in this assay (P00742 41-488 limits assumed): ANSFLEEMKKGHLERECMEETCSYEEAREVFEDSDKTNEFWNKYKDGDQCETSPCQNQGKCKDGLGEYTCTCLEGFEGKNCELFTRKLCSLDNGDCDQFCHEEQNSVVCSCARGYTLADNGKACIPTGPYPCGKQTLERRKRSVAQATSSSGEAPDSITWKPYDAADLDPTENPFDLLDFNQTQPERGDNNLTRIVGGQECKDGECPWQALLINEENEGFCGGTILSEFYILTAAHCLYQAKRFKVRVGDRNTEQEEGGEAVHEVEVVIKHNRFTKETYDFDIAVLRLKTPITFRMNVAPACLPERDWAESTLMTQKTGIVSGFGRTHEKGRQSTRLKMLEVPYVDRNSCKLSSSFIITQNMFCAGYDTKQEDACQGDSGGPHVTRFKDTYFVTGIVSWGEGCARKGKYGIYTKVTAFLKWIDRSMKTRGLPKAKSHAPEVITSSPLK
The target in test [2] is T1, human blood coagulation factor Xa. The experiment in a line: Inhibition of the serine protease activity of human blood coagulation factor Xa (chromogenic substrate LGR-pNA). Format: biochemical. The following applies: 0.3 μM human factor Xa, 15 min at 37° C. preincubation, synthetic substrate LGR-pNA, Tris-HCl buffered saline pH8.0; from V/V0 curves of FIG. 4; read-out: 50% inhibition concentration (IC50) against serine protease activity of factor Xa. As to the method:
Crude venom of Bitis arietans arietans purchased from LATOXAN was dissolved in Tris-HCl buffer (50 mM Tris-HCl pH 8.0) to prepare 2 mL of a crude venom solution (in concentration of 250 mg/mL). The crude venom solution was applied to Superdex 200 pg gel permeation column (φ2.6 cm×L 60 cm) equilibrated with the Tris-HCl buffer (50 mM Tris-HCl pH 8.0) at a flow rate of 2 mL/min. Two mL aliquots of the series of eluted fractions were collected, and each eluted fraction was determined for the presence of inhibitory activity against the serine protease activity of blood coagulation factor Xa. In the assay for inhibitory activity specific to the serine protease activity of blood coagulation factor Xa, a synthetic substrate Boc-leucyl-glycil-L-arginyl-p-nitroanilide hydrochloride was used to determine a concentration of a reaction product formed by truncation at the C-terminal side of an arginine residue by protease activity of blood coagulation factor Xa (Cproduct: concentration of p-nitroaniline), and then from a product concentration without addition of a test substance: Cproduct0 and a product concentration with addition of a test substance: Cproduct, an inhibitory rate was calculated as (Cproduct0−Cproduct)/Cproduct0. […]
Target sequence in this assay (P00742 235-488 limits assumed): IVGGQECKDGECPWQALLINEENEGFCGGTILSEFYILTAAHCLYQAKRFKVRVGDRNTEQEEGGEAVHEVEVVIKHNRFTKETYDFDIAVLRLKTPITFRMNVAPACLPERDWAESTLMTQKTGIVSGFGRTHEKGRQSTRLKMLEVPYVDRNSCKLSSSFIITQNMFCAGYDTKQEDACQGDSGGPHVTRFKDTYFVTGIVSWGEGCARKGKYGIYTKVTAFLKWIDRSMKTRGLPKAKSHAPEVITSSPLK
Target sequence in this assay (P00742 41-179 partner limits assumed): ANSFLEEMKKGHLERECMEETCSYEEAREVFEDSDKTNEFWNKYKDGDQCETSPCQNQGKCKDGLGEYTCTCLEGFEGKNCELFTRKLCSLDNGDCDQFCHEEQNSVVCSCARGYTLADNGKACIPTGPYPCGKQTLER

As for “SBTI (Soybean Trypsin Inhibitor; MW=20.1 kDa) (from UniProt P01070 25-205)”, in test [1], the 50% inhibition concentration (IC50) of factor Xa protease activity (V/V0), cleavage of synthetic substrate LGR-pNA amounted to 3e-07 M.

B1: bitoran V (protein)
chain: CRQNRPDFCYLPAVEGPCRAYIRSFFYNSTSNECEKFFYGGCYGNANKFETRDECRKTCVASA
Take B1: the IC50 in test [2] amounted to 20 nM.

B2: SBTI: Trypsin inhibitor substance from plant; Kunitz-type trypsin inhibitor from soybean, MW=20.1 kDa, positive control (protein, UniProt P01070 25-205, looked up)
Trypsin inhibitor A: DFVLDNEGNPLENGGTYYILSDITAFGGIRAAPTGNERCPLTVVQSRNELDKGIGTIISSPYRIRFIAEGHPLSLKFDSFAVIMLCVGIPTEWSVVEDLPEGPAVKIGENKDAMDGWFRLERVSDDEFNNYKLVFCPQQAEDDKCGDIGISIDHDDGTRRLVVSKNKPLVVQFQKLDKESL
As to B2, in test [2], the IC50 turned out to be 300 nM.
